From US9212226B2, “Amino acid sequences directed against CXCR4 and other GPCRs and compounds comprising the same” (Ablynx N.V., priority 2008, dated 2015)
One block for each molecule: values may come before it.

Biological target: CXCR4 (Homo sapiens, UniProt P61073)
Assay: [125I]-238D2 competition binding on membranes from HEK293T cells transiently expressing CXCR4
Procedure: HEK293T cells were maintained at 37° C. in a humidified 5% CO2, 95% air atmosphere in Dulbecco's modified Eagle's medium (DMEM) containing 2 mM L-glutamine, 50 IU/ml penicillin, 50 μg/ml streptomycin, and 10% (v/v) fetal calf serum. Jurkat cells were cultured in a humidified 5% CO2, 95% air atmosphere in a 1:1 mixture of Dulbecco's modified Eagle's medium (DMEM) and Ham's F12 medium containing 2 mM L-glutamine, 50 IU/ml penicillin, 50 μg/ml streptomycin, and 10% (v/v) fetal calf serum. […] [^125 I]-Labelling— Radiolabeling of Nanobodies with ^125I was performed using the Iodo-gen method (Pierce, Rockford, Ill.) according to the manufacturer's protocol. ^125I-labeled Nanobodies was separated from free iodine (>99%) using a Sephadex G-25 gel filtration column (Amersham Biosciences, Piscataway, N.J.). […] Competition Binding Assays— Membranes from HEK293T cells transiently expressing CXCR3 or CXCR4 were prepared 48 h after transfection as follows. Cells were washed and scraped from the cell culture dishes with ice-cold PBS containing 1 mm EDTA. The scraped cells were pelleted at 1500×g for 10 min at 4° C. The pellet was washed and then resuspended in ice-cold membrane buffer (15 mM Tris, pH 7.5, 1 mM EGTA, 0.3 mM EDTA, and 2 mM MgCl2). The cell suspension was homogenized by 10 strokes at 1200 rpm using a Teflon-glass homogenizer and rotor and further subjected to three freeze-thaw cycles using liquid nitrogen. Membranes were separated by centrifugation at 40,000 g for 25 min at 4° C. The membrane pellet was washed and resuspended in ice-cold Tris-sucrose buffer (20 mM Tris, pH 7.4, and 250 mM sucrose) and frozen in liquid nitrogen. The total protein was determined using a Bradford assay (Bio-Rad). […] Membranes were then harvested over polyethylenimine (0.5%)-treated Whatman GF/C filter plates and washed three times with ice cold binding buffer containing 500 mM NaCl. Plates were counted by liquid scintillation. Inositol Phosphate Accumulation Assay— 24 hours post transfection with pcDNA3.1-CXCR4 and pcDNA1-HA-mG {alpha} qi5 (see Verzijl et al, 2008 supra), 250.000 cells were seeded into 24-wells plates and labelled overnight using inositol-free minimal essential medium supplemented with 1 μCi myo-[2-^3H]-inositol. The next day, the cells were washed once to remove not incorporated myo-[2-^3H]-inositol. […] In agonist experiments, the cells were directly stimulated with test compounds and LiCl (10 mM) in assay buffer for 2 h at 37° C. The stimulation was stopped by aspirating the stimulation medium and adding ice-cold 10 mM formic acid. The accumulated inositol phosphates were isolated by anion exchange chromatography and counted by liquid scintillation. CRE Reporter Gene Assay— HEK239T cells were transfected with pCRE/β-galactosidase (Chen W, Shields T S, Stork P J S, Cone R D (1995) Anal Biochem 226:349-354) and plasmids (pcDEF3 or pcDNA3.1) encoding the indicated receptors. 40,000 transfected cells per well were seeded into 96 well plates and grown in DMEM supplemented with 10% fetal calf serum. The medium was replaced 32 h after transfection by serum-free DMEM supplemented with 0.5% bovine serum albumin and ligands as indicated. […] The β-galactosidase activity was determined by the measurement of absorption at 420 nm with a PowerwaveX340 plate reader (Bio-Tek Instruments Inc., Winooski, Vt.) after incubation with the assay buffer when the OD420 value for forskolin (3 μM) controls reached 0.4-0.6. Chemotaxis Assay— The chemotactic responsiveness of Jurkat 3D cells was assessed using ChemoTx™ plates (Receptor Technologies Ltd., Oxon, UK) in which a upper cell-containing compartment is separated from a lower chemoattractant-containing compartment by a polyvinylpyrollidone-free polycarbonate filter with 5-μm pores. Cells were harvested, washed and resuspended in RPMI containing 0.5% bovine serum albumin and then loaded to 150,000 cells per well in a volume of 25 μl into the upper compartment of the chemotaxis chamber.

[1] = membranes from HEK293T cells transiently expressing CXCR4, mean ± S.E.M.

Chain of CXCR4 (P61073 whole entry): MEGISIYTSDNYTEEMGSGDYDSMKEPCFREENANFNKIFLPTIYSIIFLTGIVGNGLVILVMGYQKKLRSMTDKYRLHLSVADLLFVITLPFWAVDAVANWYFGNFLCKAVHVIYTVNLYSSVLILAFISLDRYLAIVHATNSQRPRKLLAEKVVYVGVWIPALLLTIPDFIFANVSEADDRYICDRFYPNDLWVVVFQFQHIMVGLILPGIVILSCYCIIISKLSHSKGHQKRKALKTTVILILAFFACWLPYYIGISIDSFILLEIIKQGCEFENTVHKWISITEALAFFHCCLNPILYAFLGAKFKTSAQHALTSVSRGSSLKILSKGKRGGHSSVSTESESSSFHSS

Displacem. (%) of [125I]-238D2 (maximal displacement) [1]: 97 ± 6%
pKi, [125I]-238D2 [1]: 8.41 ± 0.11
B1: 238D2: Nanobody (VHH) raised against human CXCR4, SEQ ID NO: 238 (protein)
VHH: EVQLVESGGGLVQTGGSLRLSCAASGFTFSSYAMSWVRQAPGKGLEWVSGIKSSGDSTRYAGSVKGRFTISRDNAKNMLYLQMYSLKPEDTAVYYCAKSRVSRTGLYTYDNRGQGTQVTVSS
modifications: Nanobody, Nanobody constructs or fragments thereof

displacement of [125I]-238D2 from CXCR4 ([125I]-238D2 3 nM): full displacement
Displacem. (%) of [125I]-238D2 (maximal displacement) [1]: 101 ± 1%
B2: 238D4: Nanobody (VHH) raised against human CXCR4, SEQ ID NO: 239 (protein)
VHH: EVQLMESGGGLVQAGGSLRLSCAASGRTFNNYAMGWFRRAPGKEREFVAAITRSGVRSGVSAIYGDSVKDRFTISRDNAKNTLYLQMNSLKPEDTAVYTCAASAIGSGALRRFEYDYSGQGTQVTVSS
modifications: Nanobody, Nanobody constructs or fragments thereof
